From patent JP2001526021A come the findings set out here.

For the test, the target named is ブラジキニン受容体 (bradykinin receptor) on SV-T2 cells. As to the kind of experiment: cell-based or functional assay.

With ブラジキニン (bradykinin) (peptide), the PGE2合成 (PGE2 synthesis in SV-T2 cells, ELISA) is 4 倍 (fold) and the PGE2合成 (PGE2 synthesis in SV-T2 cells, Fig. 7C) is 4 倍 (fold).
